The test concerns the target T1, human OX40 on cells (human, UniProt P43489 29-277).
T1 sequence (looked up): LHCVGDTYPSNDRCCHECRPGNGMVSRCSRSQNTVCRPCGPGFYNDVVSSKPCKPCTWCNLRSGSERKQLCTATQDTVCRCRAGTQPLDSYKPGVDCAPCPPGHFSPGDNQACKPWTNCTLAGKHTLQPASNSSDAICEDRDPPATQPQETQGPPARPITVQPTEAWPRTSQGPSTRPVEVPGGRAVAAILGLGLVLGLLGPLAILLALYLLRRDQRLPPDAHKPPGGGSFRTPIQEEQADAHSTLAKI
Briefly: cell-based or functional assay.

B1: 7H11 IgG1 LALA (antibody, V domains shown)
VH: QVQLVQSGAEVKKPGASVKVSCKASGYTFTRYYMHWVRQAPGQGLEWMGWIYPGDGSTKYAQKFQGRVTMTRDTSISTAYMELSRLRSDDTAVYYCAREYGNYDYWGQGTLVTVSS
VL: DIVMTQSPDSLAVSLGERATINCKSSQSLLNSGNQKNYLAWYQQKPGQPPKLLIYGASTRESGVPDRFSGSGSGTDFTLTISSLQAEDVAVYYCQNDHSYPYTFGQGTKLEIKR
With B1, the “% donor responder (>2), SEB assay, IL-2 release” value (from here on “% donor responder”) turned out to be 6% and the “Mean, normalized IL-2 release, SEB assay” value is 0.81.

B2: Tetra-19 (bispecific antibody, human IgG1, kappa, L234A L235A)
heavy 1: QVQLVQSGAEVKKPGASVKVSCKASGYTFTRYYMHWVRQAPGQGLEWMGWIYPGEGSTKYAQKFQGRVTMTRDTSISTAYMELSRLRSDDTAVYYCAREYGNYDYWGQGTLVTVSSASTKGPSVFPLAPSSKSTSGGTAALGCLVKDYFPEPVTVSWNSGALTSGVHTFPAVLQSSGLYSLSSVVTVPSSSLGTQTYICNVNHKPSNTKVDKKVEPKSCDKTHTCPPCPAPEAAGGPSVFLFPPKPKDTLMISRTPEVTCVVVDVSHEDPEVQFKWYVDGVEVHNAKTKPREEQYNSTFRVVSVLTVLHQDWLNGKEYKCKVSNKALPAPIEKTISKTKGQPREPAVYTLPPSREEMTKNQVKLVCLVTGFYPSDIAVEWESSGQPENNYYTTPPMLDSDGSFSLVSWLNVDKSRWQQGNIFSCSVMHEALHNRFTQKSLSLSPGGGGGTEVQLVESGGGLVQPGGSLRLSCAVSGYSITSDYAWNWIRQAPGKCLEWMGYISYSGSTAYNPSLKSRITISRDTSKNTFYLQMSSLRAEDTAVYYCARGPYNYLAYWGQGTLVTVSSGGGGSGGGGSGGGGSDIQLTQSPSSLSASVGDRVTITCRASESVDNYGISFMNWFQQKPGKAPKLLIYAASNQKSGVPSRFSGSGSGTDFTLTISSLQPEDFATYFCQQSKEVPLTFGCGTKVEIL
heavy 2: QVQLVQSGAEVKKPGASVKVSCKASGYTFTRYYMHWVRQAPGQGLEWMGWIYPGEGSTKYAQKFQGRVTMTRDTSISTAYMELSRLRSDDTAVYYCAREYGNYDYWGQGTLVTVSSASTKGPSVFPLAPSSKSTSGGTAALGCLVKDYFPEPVTVSWNSGALTSGVHTFPAVLQSSGLYSLSSVVTVPSSSLGTQTYICNVNHKPSNTKVDKKVEPKSCDKTHTCPPCPAPEAAGGPSVFLFPPKPKDTLMISRTPEVTCVVVDVSHEDPEVKFNWYVDGVEVHNAKTKPREEQYNSTYRVVSVLTVLHQDWLNGKEYKCKVSNKALPAPIEKTISKAKGQPREPEVATFPPSRDELTKNQVTLVCLVTGFYPSDIAVEWESNGQPENNYKTDPPLLESQGSFALSSRLRVDKSRWQQGNVFSCSVMHEALHNHYTQKSLSLSPGGGGGTQVQLVQSGAEVKKPGASVKVSCKASGYTFTRYYMHWVRQAPGQGLEWMGWIYPGEGSTKYAQKFQGRVTMTRDTSISTAYMELSRLRSDDTAVYYCAREYGNYDYWGQGTLVTVSSASTKGPSVFPLAPSSKSTSGGTAALGCLVKDYFPEPVTVSWNSGALTSGVHTFPAVLQSSGLYSLSSVVTVPSSSLGTQTYICNVNHKPSNTKVDKKVEPKSC
light: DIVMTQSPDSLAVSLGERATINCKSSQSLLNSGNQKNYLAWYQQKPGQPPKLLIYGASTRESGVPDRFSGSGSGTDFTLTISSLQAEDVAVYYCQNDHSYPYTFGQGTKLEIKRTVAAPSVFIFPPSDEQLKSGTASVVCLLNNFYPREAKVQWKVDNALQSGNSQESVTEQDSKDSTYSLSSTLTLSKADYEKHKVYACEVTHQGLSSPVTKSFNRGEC
With B2, the “% donor responder” value came out at 0% and the “Mean, normalized IL-2 release, SEB assay” value turned out to be 1.

B3: Tetra-21 (bispecific antibody, human IgG1, kappa, L234A L235A)
heavy 1: B2 heavy 1
heavy 2: EVQLVESGGGLVQPGGSLRLSCAVSGYSITSDYAWNWIRQAPGKCLEWMGYISYSGSTAYNPSLKSRITISRDTSKNTFYLQMNSLRAEDTAVYYCARGPYNYLAYWGQGTLVTVSSGGGGSGGGGSGGGGSDIQLTQSPSSLSASVGDRVTITCRASESVDNYGISFMNWFQQKPGKAPKLLIYAASNQKSGVPSRFSGSGSGTDFTLTISSLQPEDFATYFCQQSKEVPLTFGCGTKVEIKRTGGGGTDKTHTCPPCPAPEAAGGPSVFLFPPKPKDTLMISRTPEVTCVVVDVSHEDPEVKFNWYVDGVEVHNAKTKPREEQYNSTYRVVSVLTVLHQDWLNGKEYKCKVSNKALPAPIEKTISKAKGQPREPEVATFPPSRDELTKNQVTLVCLVTGFYPSDIAVEWESNGQPENNYKTDPPLLESQGSFALSSRLRVDKSRWQQGNVFSCSVMHEALHNHYTQKSLSLSPGGGGGTQVQLVQSGAEVKKPGASVKVSCKASGYTFTRYYMHWVRQAPGQGLEWMGWIYPGEGSTKYAQKFQGRVTMTRDTSISTAYMELSRLRSDDTAVYYCAREYGNYDYWGQGTLVTVSSASTKGPSVFPLAPSSKSTSGGTAALGCLVKDYFPEPVTVSWNSGALTSGVHTFPAVLQSSGLYSLSSVVTVPSSSLGTQTYICNVNHKPSNTKVDKKVEPKSC
light: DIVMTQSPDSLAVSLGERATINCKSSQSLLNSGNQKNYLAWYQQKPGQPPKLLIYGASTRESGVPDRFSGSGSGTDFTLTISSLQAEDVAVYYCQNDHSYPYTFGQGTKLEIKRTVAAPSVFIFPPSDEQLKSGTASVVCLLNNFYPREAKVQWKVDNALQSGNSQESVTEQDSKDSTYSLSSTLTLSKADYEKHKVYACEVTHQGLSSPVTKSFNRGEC
For the molecule B3, the “% donor responder” value was determined as 8% and the “Mean, normalized IL-2 release, SEB assay” value came to 1.32.

B4: 2H6 IgG1 LALA (antibody)
heavy: not shown
light: DIQLTQSPSSLSASVGDRVTITCRASESVDNYGISFMNWFQQKPGKAPKLLIYAASNQKSGVPSRFSGSGSGTDFTLTISSLQPEDFATYFCQQSKEVPLTFGQGTKVEIKRTVAAPSVFIFPPSDEQLKSGTASVVCLLNNFYPREAKVQWKVDNALQSGNSQESVTEQDSKDSTYSLSSTLTLSKADYEKHKVYACEVTHQGLSSPVTKSFNRGEC
With B4, the “% donor responder” value was determined as 25% and the “Mean, normalized IL-2 release, SEB assay” value was 1.45.

B5: Tetra-14 (bispecific antibody, human IgG1, kappa, L234A L235A)
heavy: not shown
light: B4 light
Take B5: the “% donor responder” value is 40% and the “Mean, normalized IL-2 release, SEB assay” value worked out at 1.65.

B6: Tetra-15 (antibody, human IgG1, kappa, L234A L235A)
heavy: not shown
light: B4 light
With B6, the “% donor responder” value turned out to be 0% and the “Mean, normalized IL-2 release, SEB assay” value was 0.93.

B7: Tetra-20 (bispecific antibody, human IgG1, kappa, L234A L235A)
heavy 1: EVQLVESGGGLVQPGGSLRLSCAVSGYSITSDYAWNWIRQAPGKGLEWMGYISYSGSTAYNPSLKSRITISRDTSKNTFYLQMSSLRAEDTAVYYCARGPYNYLAYWGQGTLVTVSSASTKGPSVFPLAPSSKSTSGGTAALGCLVKDYFPEPVTVSWNSGALTSGVHTFPAVLQSSGLYSLSSVVTVPSSSLGTQTYICNVNHKPSNTKVDKKVEPKSCDKTHTCPPCPAPEAAGGPSVFLFPPKPKDTLMISRTPEVTCVVVDVSHEDPEVQFKWYVDGVEVHNAKTKPREEQYNSTFRVVSVLTVLHQDWLNGKEYKCKVSNKALPAPIEKTISKTKGQPREPAVYTLPPSREEMTKNQVKLVCLVTGFYPSDIAVEWESSGQPENNYYTTPPMLDSDGSFSLVSWLNVDKSRWQQGNIFSCSVMHEALHNRFTQKSLSLSPGGGGGTQVQLVQSGAEVKKPGASVKVSCKASGYTFTRYYMHWVRQAPGQCLEWMGWIYPGEGSTKYAQKFQGRVTMTRDTSISTAYMELSRLRSDDTAVYYCAREYGNYDYWGQGTLVTVSSGGGGSGGGGSGGGGSDIVMTQSPDSLAVSLGERATINCKSSQSLLNSGNQKNYLAWYQQKPGQPPKLLIYGASTRESGVPDRFSGSGSGTDFTLTISSLQAEDVAVYYCQNDHSYPYTFGCGTKLEIL
heavy 2: EVQLVESGGGLVQPGGSLRLSCAVSGYSITSDYAWNWIRQAPGKGLEWMGYISYSGSTAYNPSLKSRITISRDTSKNTFYLQMNSLRAEDTAVYYCARGPYNYLAYWGQGTLVTVSSASTKGPSVFPLAPSSKSTSGGTAALGCLVKDYFPEPVTVSWNSGALTSGVHTFPAVLQSSGLYSLSSVVTVPSSSLGTQTYICNVNHKPSNTKVDKKVEPKSCDKTHTCPPCPAPEAAGGPSVFLFPPKPKDTLMISRTPEVTCVVVDVSHEDPEVKFNWYVDGVEVHNAKTKPREEQYNSTYRVVSVLTVLHQDWLNGKEYKCKVSNKALPAPIEKTISKAKGQPREPEVATFPPSRDELTKNQVTLVCLVTGFYPSDIAVEWESNGQPENNYKTDPPLLESDGSFALSSRLRVDKSRWQQGNVFSCSVMHEALHNHYTQKSLSLSPGGGGGTEVQLVESGGGLVQPGGSLRLSCAVSGYSITSDYAWNWIRQAPGKGLEWMGYISYSGSTAYNPSLKSRITISRDTSKNTFYLQMNSLRAEDTAVYYCARGPYNYLAYWGQGTLVTVSSASTKGPSVFPLAPSSKSTSGGTAALGCLVKDYFPEPVTVSWNSGALTSGVHTFPAVLQSSGLYSLSSVVTVPSSSLGTQTYICNVNHKPSNTKVDKKVEPKSC
light: B4 light
Take B7: the “% donor responder” value amounted to 0% and the “Mean, normalized IL-2 release, SEB assay” value worked out at 1.14.

B8: Tetra-18 (antibody, human IgG1, kappa, L234A L235A)
heavy: not shown
light: B4 light
With B8, the “% donor responder” value came out at 0% and the “Mean, normalized IL-2 release, SEB assay” value is 0.88.

The record behind these values is patent US20200347143A1 (GLENMARK PHARMACEUTICALS S A, published 2020).
